Biological target: T1, His-MIF (His-tag/T7 gene 10 leader/Xpress-MIF fusion) (UniProt P14174 P14174:1-115)
T1 chain: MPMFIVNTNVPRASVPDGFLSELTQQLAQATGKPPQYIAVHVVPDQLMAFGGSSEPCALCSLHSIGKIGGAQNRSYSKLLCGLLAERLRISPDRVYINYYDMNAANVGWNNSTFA
Assay: SPR; data not shown
Settings: MIF 115 aa; ATGen

B1: X region SEQ 2323 (ssRNA)
RNA: GGGACGCUCACGUACGCUCACUACAAUAAUAUUACCCCUUGUUUUCGUUUAGUCCGGGUUUCAGUGCCUGGACGUGCAGU
modifications: 3' A20 tail for capture
B1: binds.

B2: X region SEQ 2310 (ssRNA)
RNA: GGGACGCUCACGUACGCUCAUGGUGGAUUGGUGCAUCUAUGUCUUCUUACUUGUUAUCAGUGCCUGGACGUGCAGU
modifications: 3' A20 tail for capture
B2: binds.

B3: X region SEQ 2309 (ssRNA)
RNA: GGGACGCUCACGUACGCUCACUGGGCGACUAGGUGUACUGGCUAUCACGUUCUGGAUAAGUCAGUGCCUGGACGUGCAGU
modifications: 3' A20 tail for capture
B3: binds.

B4: X region SEQ 2324 (ssRNA)
RNA: GGGACGCUCACGUACGCUCAUGGUGUACUGUACCUAUUCGACACUUCUGUUGAUUAGUGAUCAGUGCCUGGACGUGCAGU
modifications: 3' A20 tail for capture
B4: binds.

B5: X region SEQ 2315 (ssRNA)
RNA: GGGACGCUCACGUACGCUCAACCCGCGACUAGGUUUUCCUGGCGACCGUCCGGUAGUGUCAGUGCCUGGACGUGCAGU
modifications: 3' A20 tail for capture
B5: binds.

B6: X region SEQ 2313 (ssRNA)
RNA: GGGACGCUCACGUACGCUCAGGUGUACUGUAACCUGCCUGCCACCUGCGGCUUCGCGGACUCAGUGCCUGGACGUGCAGU
modifications: 3' A20 tail for capture
B6: binds.

B7: X region SEQ 2321 (ssRNA)
RNA: GGGACGCUCACGUACGCUCAGCACUGCUUACGGGGUCUCCGGCAGUAUGCCCUGGUGUAUUCAGUGCCUGGACGUGCAGU
modifications: 3' A20 tail for capture
B7: binds.

B8: X region SEQ 2320 (ssRNA)
RNA: GGGACGCUCACGUACGCUCAGACGUUCAAGUAAAUUGGCCCUAUAUUUCGUUAUAGUAUGUCAGUGCCUGGACGUGCAGU
modifications: 3' A20 tail for capture
B8: binds.

B9: X region SEQ 2326 (ssRNA)
RNA: GGGACGCUCACGUACGCUCAGGCUACUGGUCAGAGGUUUCCAGCAGAUUUCCUGCCUAAAUCAGUGCCUGGACGUGCAGU
modifications: 3' A20 tail for capture
B9: binds.

B10: X region SEQ 2314 (ssRNA)
RNA: GGGACGCUCACGUACGCUCAAACUUGAUCCUGGUUUCCAGCAGUAUGCCGCGUGAUUUCGUCAGUGCCUGGACGUGCAGU
modifications: 3' A20 tail for capture
B10: binds.

B11: X region SEQ 2318 (ssRNA)
RNA: GGGACGCUCACGUACGCUCAACUCCCUCUUUCGCGGGCUCCUUUCCGCAACACGACUGGCUCAGUGCCUGGACGUGCAGU
modifications: 3' A20 tail for capture
B11: binds.

B12: X region SEQ 2325 (ssRNA)
RNA: GGGACGCUCACGUACGCUCAUACUUCCGGGUGUACUGUAAGCCCUACGCUGGAGGGGCUCUCAGUGCCUGGACGUGCAGU
modifications: 3' A20 tail for capture
B12: binds.

B13: X region SEQ 2317 (ssRNA)
RNA: GGGACGCUCACGUACGCUCAGGUUGAUCCCGUUCUUCUUGACUGGCGCCUUCAUGGAGUGUCAGUGCCUGGACGUGCAGU
modifications: 3' A20 tail for capture
B13: binds.

B14: X region SEQ 2319 (ssRNA)
RNA: GGGACGCUCACGUACGCUCAAAAGUUUUGCACGUUCUCCCGGUGUCCUGGCGCUUGGCUGUCAGUGCCUGGACGUGCAGU
modifications: 3' A20 tail for capture
B14: binds.

B15: X region SEQ 2311 (ssRNA)
RNA: GGGACGCUCACGUACGCUCAAGACGGUGUACUGGCACUUUUACUUCAUUGAGUAGAAAUUCGUCAGUGCCUGGACGUGCAGU
modifications: 3' A20 tail for capture
B15: binds.

B16: X region SEQ 2322 (ssRNA)
RNA: GGGACGCUCACGUACGCUCAGUUGGUUGCUGUGCAGUCUGGGUGUCUUGGCUUUCGGAUGUCAGUGCCUGGACGUGCAGU
modifications: 3' A20 tail for capture
B16: binds.

B17: X region SEQ 2316 (ssRNA)
RNA: GGGACGCUCACGUACGCUCACAACUUGUAUUGUCCGGGUGUACUGUACCGAAACUCGUGAUCAGUGCCUGGACGUGCAGU
modifications: 3' A20 tail for capture
B17: binds.

Reference: patent US20120129720, “APTAMER THAT RECOGNIZES PEPTIDE” (KANAGAWA PREFECTURAL HOSPITAL ORGANIZATION, published 2012)
